Tested on: subclone of SKOV-3.ip1
Assay: long-term survival study, E1A-Cterm lipid:DNA complex, aggressive SKOV-3.ip1 subclone in nude mice
Format: in vivo, mouse
Protocol: FIG. 9. Comparison of tumor suppressor activity of full-length E1A and mini-E1ACterm. Mice bearing tumors from an aggressive subclone of the SKOV-3.ip1 cell line were injected with the treatment compounds indicated. […] As also shown, while all nine control animals were dead by that time, none of the animals receiving full-length E1A or mini-E1ACterm had died. Mini-E1ACterm was equivalent to full-length E1A in tumor suppression.
Long-term survival studies were performed using the E1A-Cterm mini-gene in a tumor engraftment model and DNA-lipid formulations as described above. In this study, it appears that the subclone of SKOV-3.ip1 used may have been even more aggressive in tumor formation than the SKOV-3.ip1 parent used to induce tumors in the nude mice since no control mice survived for more than about 35 days. The protocol was otherwise as in the long-term study above except that: (i) 10 mice were used in each group receiving E1A formulations and 9 mice were used in the control group; (ii) 5% dextrose was used for control injections; and (iii) a lipid:DNA ratio of 10:1 w as used for the treatment formulations however, as above, each injection contained 15 μg of DNA.

B1: mini-E1ACterm: mini-E1A construct in pcDNA1.1 encoding E1A 186-289; expected polypeptide about 80 amino acids, 209-289, SEQ ID NO:1 (nucleic acid)
chain: CCTGTGTCTGAACCTGAGCCTGAGCCCGAGCCAGAACCGGAGCCTGCAAGACCTACCCGCCGTCCTAAAATGGCGCCTGCTATCCTGAGACGCCCGACATCACCTGTGTCTAGAGAATGCAATAGTAGTACGGATAGCGTGGACTCCGGTCCTTCTAACACACCTCCTGAGAGACACCCGGTGGTCCCGCTGTGCCCCATTAAACCAGTTGCCGTGAGAGTTGGTGGGCGTCGCCAGGCTGTGGAATGTATCGAGGACTTGCTTAACGAGCCTGGGCAACCTTTGGACTTGAGCTGTAAACGCCCCAGGCCATAA
modifications: pcDNA1.1 vector
- animals alive when the last dextrose control mouse died (about day 35, lipid:DNA 10:1, 15 μg DNA per injection, 10 mice per group): 100%
- tumor masses in surviving mice after 21 weeks (visual inspection, the 4 surviving mice): no signs of such tumor masses

Reference: patent US6683059B1, “Mini-E1A gene and gene products” (priority 1996, dated 2004)
